From the supplement of paper PMC7125110
± gives the standard error. For some of these results: Variants at the floor of the assay were thinned out.

B1: glmS ribozyme (parent)
chain: AUAAAAGCGCCAGAACUACAGAAAUGUAGUUGACGAGGAGGAGGUUUAUCGAAUUUUCGGCGGAUGCCUCCAAA

Legend:
Settings in all cases: with glucosamine-6-phosphate
glucosamine-6-phosphate [1] = variants of: B1; assay: kcat; higher = faster cleavage; RNA array
Summary of the method: (§1)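 Barcoded ribozyme variants on sequenced MiSeq chips were transcribed in situ by E. coli RNA polymerase and followed at 37 °C through a hybridised Cy3 probe. Glucosamine-6-phosphate at 40 μM to 10 mM in HEPES/KCl/Mg(OAc)2 buffer was flowed in, and tiles were imaged over ~14 h. Signals were normalised to baseline and to non-cleaving reference variants, and per-tile medians were fit to one- or two-exponential decays to give kobs. Weighted Michaelis–Menten fits across concentrations gave kcat and KM.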

glucosamine-6-phosphate [2] = variants of: B1; assay: KM; higher = weaker cofactor use; RNA array
Summary of the method: as §1

glucosamine-6-phosphate [3] = variants of: B1; assay: self-cleavage kobs at 40 uM GlcN6P; higher = faster cleavage; RNA array
Summary of the method: as §1

glucosamine-6-phosphate [4] = variants of: B1; assay: self-cleavage kobs at 160 uM GlcN6P; higher = faster cleavage; RNA array
Summary of the method: as §1

glucosamine-6-phosphate [5] = variants of: B1; assay: self-cleavage kobs at 640 uM GlcN6P; higher = faster cleavage; RNA array
Summary of the method: as §1

glucosamine-6-phosphate [6] = variants of: B1; assay: self-cleavage kobs at 2500 uM GlcN6P; higher = faster cleavage; RNA array
Summary of the method: as §1

glucosamine-6-phosphate [7] = variants of: B1; assay: self-cleavage kobs at 10000 uM GlcN6P; higher = faster cleavage; RNA array
Summary of the method: as §1

Row | Variant | kcat (glucosamine-6-phosphate [1]) [s⁻¹] | KM (glucosamine-6-phosphate [2]) [µM] | self-cleavage kobs at 40 uM GlcN6P (glucosamine-6-phosphate [3]) [s⁻¹] | self-cleavage kobs at 160 uM GlcN6P (glucosamine-6-phosphate [4]) [s⁻¹] | self-cleavage kobs at 640 uM GlcN6P (glucosamine-6-phosphate [5]) [s⁻¹] | self-cleavage kobs at 2500 uM GlcN6P (glucosamine-6-phosphate [6]) [s⁻¹] | self-cleavage kobs at 10000 uM GlcN6P (glucosamine-6-phosphate [7]) [s⁻¹]
1 | A14G C70A | 0.000511 ± 0.0001 | 256 ± 76 | 6.67e-05 ± 5.7e-06 | 0.000287 ± 4.4e-05 | 0.000328 ± 4.7e-05 | 0.000484 ± 8.1e-05 | –
2 | A14U A33C | 7.66e-05 ± 5.8e-06 | 1620 ± 560 | – | – | – | 5.28e-05 ± 1.3e-05 | 6.52e-05 ± 7.3e-06
3 | A14G A53U | 0.0349 ± 0.012 | 1060 ± 450 | 0.00142 ± 0.00015 | 0.00482 ± 0.00076 | 0.011 ± 0.0013 | 0.0342 ± 0.015 | 0.0446 ± 0.0086
4 | A14U U49C | < 1e-05 | – | < 1e-05 | < 1e-05 | – | – | –
5 | A14G G37A | 0.00833 ± 0.0023 | 3890 ± 1400 | 0.000119 ± 1.7e-05 | 0.00027 ± 3.3e-05 | 0.00126 ± 0.00017 | 0.00399 ± 0.0005 | 0.00564 ± 0.00066
6 | A14U U46A | 0.000437 ± 0.0001 | 2000 ± 930 | – | 2.43e-05 ± 9.4e-06 | 9.67e-05 ± 1.3e-05 | 0.000343 ± 3.4e-05 | 0.000323 ± 3.5e-05
7 | A14U U46C | 0.00036 ± 8.4e-05 | 956 ± 430 | – | 6.29e-05 ± 9.9e-06 | 0.000126 ± 1.4e-05 | 0.000395 ± 5.3e-05 | 0.000305 ± 4e-05
8 | A15C U57A | 7.96e-05 ± 6.3e-06 | 2770 ± 750 | – | – | – | 3.94e-05 ± 1.2e-05 | 6.22e-05 ± 8.8e-06
9 | A14G U45A U49G | 0.00282 ± 0.001 | 2040 ± 970 | 8.34e-05 ± 1.7e-05 | 0.000143 ± 3.9e-05 | 0.000745 ± 0.00011 | 0.00136 ± 0.00063 | 0.00233 ± 0.00051
10 | A15G C50U | 9.75e-05 ± 1.3e-05 | 2370 ± 1000 | – | – | – | 4.52e-05 ± 1.3e-05 | 8.01e-05 ± 1.2e-05
11 | A14U U65G | 0.00172 ± 0.00014 | 2120 ± 250 | 2.77e-05 ± 8e-06 | 0.000118 ± 1.7e-05 | 0.000431 ± 4.8e-05 | 0.000875 ± 0.00012 | 0.00144 ± 0.00018
12 | A14U A15U | 0.00245 ± 0.00036 | 2240 ± 500 | 5.71e-05 ± 7.8e-06 | 0.000141 ± 1.6e-05 | 0.000602 ± 7.4e-05 | 0.00125 ± 0.00014 | 0.00202 ± 0.00018
13 | A14G U30C | 0.00152 ± 0.00022 | 1880 ± 500 | 3.48e-05 ± 8e-06 | 9.58e-05 ± 1.9e-05 | 0.000552 ± 0.00011 | 0.000958 ± 0.00012 | 0.00122 ± 0.00013
14 | A14U A33U A42G | 9.54e-05 ± 3.1e-05 | – | – | – | – | 7.08e-05 ± 1.9e-05 | 7.49e-05 ± 2.6e-05
15 | A14U A42U | 3.26e-05 ± 1.5e-06 | 884 ± 270 | – | – | – | – | 3.02e-05 ± 7.7e-06
16 | A14G U65C | 0.00147 ± 0.00035 | 1120 ± 420 | 7.25e-05 ± 1.9e-05 | 0.000176 ± 3.5e-05 | 0.000445 ± 9.2e-05 | 0.00142 ± 0.00028 | 0.00124 ± 0.00025
17 | A14G G29C | 0.000331 ± 6.9e-05 | 1330 ± 540 | – | 6.33e-05 ± 1.1e-05 | 9.55e-05 ± 8.8e-06 | 0.000253 ± 2.6e-05 | 0.00028 ± 2.9e-05
18 | A14G G29U | 0.00845 ± 0.0039 | – | 0.000647 ± 0.00012 | 0.00105 ± 0.00022 | 0.00497 ± 0.00096 | 0.00501 ± 0.0013 | 0.0131 ± 0.0033
19 | A14U C71G | 0.000432 ± 8.9e-05 | 1620 ± 630 | 2.7e-05 ± 9.2e-06 | 5.71e-05 ± 1.1e-05 | 0.000111 ± 1.3e-05 | 0.000237 ± 3.2e-05 | 0.000402 ± 4.2e-05
20 | A14U G32C | 0.000397 ± 4e-05 | 3050 ± 580 | – | – | 6.36e-05 ± 8.6e-06 | 0.000199 ± 1.9e-05 | 0.000294 ± 2.6e-05
21 | A14U G32A | 0.0126 ± 0.0035 | 3720 ± 1400 | 0.000167 ± 1.7e-05 | 0.00046 ± 0.00011 | 0.00156 ± 0.00027 | 0.00376 ± 0.0007 | 0.0102 ± 0.001
22 | A14G U69G | 0.000107 ± 2.2e-05 | – | 8.24e-05 ± 1.9e-05 | 5.73e-05 ± 1.7e-05 | 0.000175 ± 3.5e-05 | 0.000103 ± 2e-05 | 0.000113 ± 1.8e-05
23 | A14U C50U C67G | 3.51e-05 ± 1.5e-05 | – | – | – | – | – | –
24 | A14G G40A G41U G66A | 0.000815 ± 0.00014 | 2850 ± 980 | – | – | 0.000149 ± 3.6e-05 | 0.000356 ± 9.3e-05 | 0.000645 ± 0.0001
25 | A14G C58A | 0.00151 ± 0.00049 | 4260 ± 2000 | 2.97e-05 ± 1e-05 | 6.76e-05 ± 3.4e-05 | 0.000214 ± 2.3e-05 | 0.000448 ± 6.1e-05 | 0.0012 ± 0.00014
26 | A14G C58G | 0.00036 ± 0.00013 | – | – | 4.95e-05 ± 1.8e-05 | 7.22e-05 ± 2.1e-05 | 0.000115 ± 2.3e-05 | 0.000276 ± 3.5e-05
27 | A14G C58U | 0.000263 ± 4.8e-05 | – | < 1e-05 | – | – | 5.32e-05 ± 1.9e-05 | 0.000129 ± 2.9e-05
28 | A15G C16G | 0.00525 ± 0.001 | 2660 ± 820 | 9.12e-05 ± 2.2e-05 | 0.000213 ± 6.8e-05 | 0.0011 ± 0.00023 | 0.00326 ± 0.00063 | 0.00391 ± 0.00059
